Experimental data taken from the RNAGym collection of RNA variant scans (doi:10.1073/pnas.2313332121).

B1: TPR t1 (parent)
chain: GACCAAUCUGCCCUCAGAGCUCGAGAACAUCUUCGGAUGCAGAGGAGGCAGGCUUCGGUGGCGCGAUAGCGCCAACGUCCUCAACCUCCAAUGCAUCCCACCACAUGAUGAUGCCUGAAGAGCCUUGGUUUUUUG

Variants of: B1
Assay: polymerase ribozyme fitness, log enrichment relative to wild type (log ratio); higher = more active; in vitro selection for triplet polymerase activity
How it was run: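 Both subunits of a heterodimeric triplet polymerase ribozyme were given their own mutant library, built by PCR and transcribed. Each library was annealed with a biotinylated primer, the partner subunit and triplets, incubated frozen at −7 °C, and its extended constructs gel-excised, captured on streptavidin beads and amplified by RT-PCR, all in one round done in triplicate. Fitness is the logarithm of genotype enrichment relative to wild-type enrichment, with replicates averaged by inverse-variance weighting. That logarithm is base 2, and Illumina-sequenced genotypes needed ≥10 input reads and ≥1 read per output.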

Point of comparison: A29G A37G A84G G110U A121G, “polymerase ribozyme fitness (log ratio)” value -3.06. Against it:
- C53U G71A G93A — higher, -1.43
- U55A G77U C115U U125A — higher, -1.02
- U9G C12G — higher, 0.483
- C28U G61A — higher, -1.12
- G77A C85A — within 0.2 log units, -2.93
- C40A G63U C79A U130G — lower, -4.83
- C40U G44A A121U — higher, 0.301
- C8U C13A A37C G61U U87G C102U — higher, -1.74
- A66G U116C — higher, -2.62
- C15G U112C — higher, -1.42
- C4U G39U G71U G117A U133A — lower, -3.6
- G47U G48A G52U — within 0.2 log units, -2.97
- A46U C73U C123G G127A — higher, -1.5
- A43G C114U — higher, -1.57
- G77C G122A U130A — higher, -1.41
- C11U G48A U59A G69U C88G G135U — lower, -3.32
- C4U C70A G128C — lower, -4.51
- G60U A84U C102A U134G — higher, -2.03
- U21C C22G C34A C49A A84G C123U U125G U133C — lower, -4.3
- C76G A84U U133G — higher, -0.998
- C28A G61A — lower, -4.06
- U9A G39C G61C U78A U87G G110U — higher, -2
- G44C A46C U54A C88G C97U G113C — lower, -3.49
- A6C G113A — higher, -1.23
- C3G G44U G45U C89A C94U A111U C123U U129C G135A — lower, -4.23
- G45C G48C C53G G107A A121G — lower, -5.84
- C76U C82U C102U G117A — lower, -4.4
- G47U C53G A105G — lower, -4.47
- C62A C101A A111C — higher, -1.51
- A2U C88G U130A — higher, -2.84
- C15U G69U U78C — higher, -0.901
- G57U G93A — higher, 0.0639
- G42A C85G G93A — within 0.2 log units, -3.19
- C12U G17C G71A C97G C115G — lower, -4.83
- U9G C13A G48C C56A C72A U78A — higher, -1.24
- C62G G93C — lower, -3.7
- C40U C49A C72G A74U C94U G117C — lower, -6.96
- C62A G107A — lower, -5.05
- C11A G60C — higher, -1.7
- A103U U106G — lower, -4.14
- G58A U92A — within 0.2 log units, -2.93
- C34U A50U C102U U109A C124U — lower, -5.84
- U32C G48A C102A C123U — higher, -2.5
- G44A C49A C76A U106A — lower, -3.36
- C104A G122A — higher, -2.31
- U21C C56A C70U G110U — lower, -6.01
- C8G C98G — lower, -5.23
- C11U C34G C53A G71A — lower, -6.35
- C20A C49A U81A C104U G120C U133A G135U — higher, -2.32
- A37U G69U U125C — lower, -3.4
- A5C A18G G63C C88A C101A G120U — lower, -4.57
- C13U C76U — higher, -0.121
- G58A U78G — higher, 0.00664
- A90G A119U — higher, 0.257
- A2C G42U — lower, -3.31
- A27U G57C C89G G120A U131A — lower, -4.12
- A18G G19A — higher, -1.4
- G71C U81C U129C U130A — lower, -3.37
- G63C G77C — higher, -2.42
- G44A A119U — higher, -0.987
- U112C U129C — higher, 0.894
- C56G U81A U87A — higher, -1.8
- A18U C40G A83U — lower, -4.16
- C22U C101A G122A — lower, -6.14
- A27U C72U U106G U129A G135U — lower, -5.91
- C8A C64U A95G A111G G122U G135A — higher, -0.12
- U54A U133G — higher, -0.274
- C13G C40U C49A C64A A100C C115U — lower, -6.9
- C8G U14A G58C — higher, -0.0186
- G10U A46C — higher, -0.286
- A18U G117C — lower, -4.12
- G10A U92A — higher, -2.86
- A41U C123U — higher, -0.183
- A37C C62G G120U U125G U130C — within 0.2 log units, -3.18
- C8A C72U U133A — higher, -0.145
- C22A G52A — lower, -4.45
- C73U G110U G120A — higher, -2.15
- C4A C15U G61A U87A — higher, -2.75
- C12G C22U U32G C102A A111U G122U — lower, -7.04
- G47U C70U C88U — lower, -3.39
- G45A C79A G113U A118G — lower, -7.04
- C72U C86U — higher, -0.347
- C12G C15A U78A — higher, -2.34
- G47U A105C U106A — higher, -1.48
- G39U C98U — higher, -1.66
- A37U G120A — higher, 1.2
- A6U C8U G48U — higher, -0.267
- G36A C97G U112G C115U — lower, -5.56
- G17A G39U G113C — lower, -6.88
- G36U G63A C97U — higher, -1.35
- A2U C11G — higher, 0.322
- C40A U59A — higher, -1.29
- C34A C76A — lower, -4.09
- C53U A91U C123A — higher, -1.7
- C73A U96C — higher, 0.0129
- U9G G58U U112A G120A U130C — higher, 0.977
- U87G G113C — higher, -2.26
- C11U C53U C72U C82G — higher, -1.43
- A5G A83C U126A — higher, -1.99
- G45A C101A — higher, -1.74
- A16G C70U C115A U125C — higher, -2.39
- C13A G61A C88A G110A — within 0.2 log units, -2.92
- G71A A111C — higher, -0.4
- A6C G47A C86U U133G — higher, -0.584
- C73U C85U U116G — lower, -3.31
- G44A G52U — higher, -2.04
- U7C A50U C82U — higher, -0.98
- A50U C101G U106A A118G C124A — higher, 0.335
- G47A C72U A121U — higher, 1.16
- U32A A46U U54A G57C G58C C70U A121G — lower, -6.21
- G69C G120U — higher, -0.245
- A37U U112A — higher, 0.71
- A18C A37G G110C — lower, -6.11
- U33G G39U A50U C70U A84U A91C C114A — lower, -7.12
- G48U A83U C85U — higher, -0.796
- C28A G39U A83C C123U U133A — lower, -4
- G48C C62A G63U A121G — lower, -4.74
- G36C U59A G69C C88A C101A — within 0.2 log units, -2.89
- C49A A90C A103U C114A — lower, -7.25
- C72G C79G U133A — higher, -1.07
- U14A G63A G93A — lower, -4.67
- A18U U87G G120A — higher, -1.48
- U9G G51C G61U G127C — lower, -3.3
- C11A C22G — lower, -4.15
- C11G C70U — higher, 0.101
- C12G C56A — higher, 0.208
- U7A U14A C86U A90U — lower, -3.61
- U54A C89U U96C G127A — higher, -1.97
- A37U C40A G69C U130A — lower, -3.51
- A50C C70U — higher, -2.04
- G52U C64U U116C — higher, -2.49
- U54G C101U U106A U116G — lower, -3.87
- C11U G58C G120U — higher, 0.332
- C3G G36U C79U C89G C123G U133G — within 0.2 log units, -3.18
- C56A C70G — lower, -3.6
- C11U C28U C82U G120U — higher, -2.14
- C56A G69C C79U G113U G117A — lower, -5.4
- C13U G69A C88U — higher, -2.75
- C56A A83U — higher, -1.62
- C56A C72U G93U — higher, -1.63
- C62A C85G — higher, -2.62
- A5C G44A A111U — lower, -5.64
- U38C G44U A111G U133G — higher, -1.11
- C28A C64U C70A C99U G110U G120C U132A — lower, -7.34
- G39C G63C — higher, -1.54
- G35A G113A — lower, -4.16
- G10U C82G G117C — lower, -4.93
- C70U A121C — higher, 1.13
- U9G C53U G61C C124G U131A — higher, 1.49
- C72U C97U — higher, -1.45
- C22U G65U C72G C124U — lower, -5.7
- G42C C56G C72G C88G C114A — lower, -7.1
- G47U C49U C62U — lower, -4.79
- G71A A83U C115U C123G G135U — lower, -4.34
- A16C C115G — lower, -3.37
- C40A G42U G77C — higher, -2.77
- C56A A100G C102U U112C G127C — higher, -2.2
- G63U C89A G113A G120C U129G — lower, -5.25
- A103C U132A — lower, -4.12
- C8U A29G U112A — higher, -0.107
- C12U C34G G127A — lower, -6.04
- G47A C82G U106A — higher, -1.42
- C82U U96G — higher, -1.12
- C15A A16U C88A — lower, -3.46
- C4U G51U A121C — higher, -1.96
- A24U A41G A43C U96A C102U A111U — lower, -6.49
